We go through one variant from paper PMC5974087, “The RPAP3-Cterminal domain identifies R2TP-like quaternary chaperones” (Nature Communications, 2018).

To fix the notation:
B1: GFP-RPAP3-Cter [human] / SHQ1 [human (endogenous in HeLa)] (parent)
chain 1: AQFATTVLPPIPANSFQLESDFRQLKSSPDMLYQYLKQIEPSLYPKLFQKNLDPDVFNQIVKILHDFYIEKEKPLLIFEILQRLSELKRFDMAVMFMSETEKKIARALFNHIDKSGLKDSSVEELKKRYGG
chain 2: MLTPAFDLSQDPDFLTIAIRVPYARVSEFDVYFEGSDFKFYAKPYFLRLTLPGRIVENGSEQGSYDADKGIFTIRLPKETPGQHFEGLNMLTALLAPRKSRTAKPLVEEIGASEIPEEVVDDEEFDWEIEQTPCEEVSESALNPQCHYGFGNLRSGVLQRLQDELSDVIDIKDPDFTPAAERRQKRLAAELAKFDPDHYLADFFEDEAIEQILKYNPWWTDKYSKMMAFLEKSQEQENHATLVSFSEEEKYQLRKFVNKSYLLDKRACRQVCYSLIDILLAYCYETRVTEGEKNVESAWNIRKLSPTLCWFETWTNVHDIMVSFGRRVLCYPLYRHFKLVMKAYRDTIKILQLGKSAVLKCLLDIHKIFQENDPAYILNDLYISDYCVWIQKVKSKKLAALAEALKEVSLTKAQLGLELEELEAAALLVQEEETALKAAHSVSGQQTLCSSSEASDSEDSDSSVSSGNEDSGSDSEQDELKDSPSETVSSLQGPFLEESSAFLIVDGGVRRNTAIQESDASQGKPLASSWPLGVSGPLIEELGEQLKTTVQVSEPKGTTAVNRSNIQERDGCQTPNN

Variants of B1 are the subject of this assay. As to the kind of experiment: SILAC quantitative proteomics of GFP IP. Particulars: with SHQ1 [human (endogenous in HeLa)]; read off a plot.
As for chain 1 R89A M92A, the enrichment (Log2 SILAC ratio) stood at 1.5.
